Legend:
[1] = target: T1, Human CLEC12A-His (human, UniProt Q5QGZ9 65-265); assay: SPR Biacore 8K 37 C; TriNKET captured on anti-hFc chip, hCLEC12A-His as analyte; 1:1 fit; control sample, n=2
T1 construct: Recombinant soluble protein made in house (Dragonfly Tx); The hCLEC12A spot of the HuProt array is written under this molecule as well; also called hCLEC12A-His; hCLEC12A; not shown: His tag
T1 sequence: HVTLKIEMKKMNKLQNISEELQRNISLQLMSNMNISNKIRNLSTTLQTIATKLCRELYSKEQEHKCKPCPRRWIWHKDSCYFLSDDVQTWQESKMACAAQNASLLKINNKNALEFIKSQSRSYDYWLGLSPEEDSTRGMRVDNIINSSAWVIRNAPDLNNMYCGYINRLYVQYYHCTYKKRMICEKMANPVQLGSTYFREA

[2] = target: T1, Human CLEC12A-His; assay: SPR Biacore 8K 37 C; TriNKET captured on anti-hFc chip, hCLEC12A-His as analyte; 1:1 fit; pH 5.0 control, n=2
[3] = target: T2, Human CD16a V158 (FcγRIIIa V158) (human, UniProt P08637 17-208, biotinylated (site not stated)); assay: SPR; biotinylated CD16a V158 captured on SA chip, TriNKET as analyte; 1:1 kinetic fit; after 4 wks 40 C in CST pH 7.0, n=3
T2 construct: V158 is the allele name in mature numbering; also called hCD16aV; hCD16a V158
T2 sequence (P08637 17-208 F176V limits assumed): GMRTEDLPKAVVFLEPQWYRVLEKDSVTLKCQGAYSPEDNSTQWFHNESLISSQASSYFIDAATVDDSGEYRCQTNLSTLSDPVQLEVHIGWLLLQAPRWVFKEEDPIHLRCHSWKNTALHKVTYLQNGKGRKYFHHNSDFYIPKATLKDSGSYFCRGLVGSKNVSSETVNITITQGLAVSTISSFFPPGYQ

B1: F3'-1602 TriNKET (bispecific antibody, human IgG1, kappa)
chain: QLQLQESGPGLVKPSETLSLTCTVSGFSLTNYGLHWIRQPPGKCLEWIGVIWSGGKTDYNPSLKSRVTISKDTSKNQFSLKLSSVQAADTAVYYCAKYDYDDSLDYWGQGTLVTVSSGGGGSGGGGSGGGGSGGGGSDIQMTQSPSSLSASVGDRVTITCHASQNINFWLSWYQQKPGKAPKLLIYEASNLHTGVPSRFSGSGSGTRFTLTISSLQPEDIATYYCQQSHSYPLTFGCGTKLEIKGSDKTHTCPPCPAPELLGGPSVFLFPPKPKDTLMISRTPEVTCVVVDVSHEDPEVKFNWYVDGVEVHNAKTKPREEQYNSTYRVVSVLTVLHQDWLNGKEYKCKVSNKALPAPIEKTISKAKGQPREPRVYTLPPCRDELTKNQVSLTCLVKGFYPSDIAVEWESNGQPENNYKTTPPVLVSDGSFTLYSKLTVDKSRWQQGNVFSCSVMHEALHNHYTQKSLSLSPG
heavy: EVQLVESGGGLVKPGGSLRLSCAASGFTFSSYSMNWVRQAPGKGLEWVSSISSSSSYIYYADSVKGRFTISRDNAKNSLYLQMNSLRAEDTAVYYCARGAPIGAAAGWFDPWGQGTLVTVSSASTKGPSVFPLAPSSKSTSGGTAALGCLVKDYFPEPVTVSWNSGALTSGVHTFPAVLQSSGLYSLSSVVTVPSSSLGTQTYICNVNHKPSNTKVDKKVEPKSCDKTHTCPPCPAPELLGGPSVFLFPPKPKDTLMISRTPEVTCVVVDVSHEDPEVKFNWYVDGVEVHNAKTKPREEQYNSTYRVVSVLTVLHQDWLNGKEYKCKVSNKALPAPIEKTISKAKGQPREPQVCTLPPSRDELTENQVSLTCLVKGFYPSDIAVEWESNGQPENNYKTTPPVLDSDGSFFLYSWLTVDKSRWQQGNVFSCSVMHEALHNHYTQKSLSLSPG
light: DIQMTQSPSSVSASVGDRVTITCRASQGISSWLAWYQQKPGKAPKLLIYAASSLQSGVPSRFSGSGSGTDFTLTISSLQPEDFATYYCQQGVSFPRTFGGGTKVEIKRTVAAPSVFIFPPSDEQLKSGTASVVCLLNNFYPREAKVQWKVDNALQSGNSQESVTEQDSKDSTYSLSSTLTLSKADYEKHKVYACEVTHQGLSSPVTKSFNRGEC
notes: Trispecific F3' format: CLEC12A scFv-Fc paired with NKG2D Fab-Fc; Stressed and control samples of the stability studies are the same molecule; also called AB0237
Binder B1 has a Kd [1] of 0.98 nM, a koff [1] of 0.000735 s⁻¹ and a kon [1] of 750000 M⁻¹ s⁻¹. For the same binder, the Kd [2] was 1.07 nM, the koff [2] was 0.000853 s⁻¹ and the kon [2] was 799000 M⁻¹ s⁻¹. It also gave a Kd [3] of 213 nM, a koff [3] of 0.0225 s⁻¹ and a kon [3] of 105000 M⁻¹ s⁻¹.

— US20220119534A1 (DRAGONFLY THERAPEUTICS, published 2022)
